This series deals with the molecule itself. The series is described as follows: SEC. In general terms: SEC sorts molecules by how far they enter the pores of the column.

B1: SARS-CoV-2 non-structural protein 9 (nsp9) (natural protein)
chain: GAMGNNELSPVALRQMSCAAGTTQTACTDDNALAYYNTTKGGRFVLALLSDLQDLKWARFPKSDGTGTIYTELEPPCRFVTDTPKGPKVKYLYFIKGLNNLNRGMVLGSLAATVRLQ
notes: also called non-structural protein nsp9; sample A; not shown: His6, N-terminal, cleaved; GST, N-terminal, cleaved
The stoichiometry N is the number of molecules, sites or subunits per partner or assembly. As to B1, the “stoichiometry N” value came out at 2.
